Entries after “also recorded” stand apart in the source; their conditions may differ.
Assays:
TRPV4 [1] = target: T1, TRPV4 (Mus musculus, UniProt Q9EPK8); test: GSK101-evoked Ca++ transient in 1° MK; format: cell-based; conditions: 5 nM GSK101; GSK205 20 μM
T1 construct: endogenous in cells; host or cells: primary mouse epidermal keratinocytes (1° MK), wild type
Description: (§1) Ca++ imaging of mouse 1° MK in response to chemical activation of TRPV4 was conducted after loading with 2 μM fura2-AM, following a ratiometric Ca2+ imaging protocol with 340/380 nm […] for dual excitation. Ratios of emissions were acquired at 0.5 Hz. ΔR/R0 was determined as the fraction of the increase of a given ratio over baseline ratio, divided by baseline ratio. For stimulation of cells with UVB, where fura-2 was not suitable because of the proximity of stimulation with 340/380 nm and 295 nm, 2 μM fluo4-AM was used instead. Ca++ imaging was carried out at 488 nm excitation, acquisition of emissions at 0.5 Hz, expressed as ΔF/F0. In the custom-built UV optical system, UV LEDs were capped with a ball lens, a transparent optical window in the shape of a hemispherical lens (FIG. 2B). The LED output optical beam focused at 15-20 mm from the lens, with a spot diameter of approximately 1.5-2.0 mm (FIG. 2C). […] The thermal equilibration stage was set for physiological temperature. We confirmed the non-thermal nature of UVB stimulation using the customized 295 nm LED device in a dedicated experiment (FIG. 2D), thus confirming the specific modality of stimulation as UVB.

[2] = tested on: primary mouse keratinocytes (1° MK); test: UVB-evoked Ca++ signaling in primary mouse keratinocytes (fluo-4 imaging); format: cell-based; conditions: GSK205 20 μM
Description: Ca++ imaging of 1° MK was conducted following routine procedures. For UVB stimulation, a customized device was built. The system comprised a printed circuit board for electrical interconnects and mechanical support and an ultraviolet light-emitting diode (UV LED).
The operating wavelength was 295 nm (FIG. 2A), with a full-width half-max of 12 nm. The optical power was 500 mW. The focal point was aimed at the plane of the upper surface of the quartz coverslip, which was used to minimize UV absorption along the optical path towards the cells (FIG. 2A-FIG. 2C). The optical intensity at the focal point was estimated to be 150 mW/mm^2.
as §1, with “temperature.” for “temperature. We confirmed the non-thermal nature of UVB stimulation using the customized 295 nm LED device in a dedicated experiment (FIG. 2D), thus confirming the specific modality of stimulation as UVB.”

TRPV4 [3] = target: T1, TRPV4; test: 4α-PDD-evoked Ca++ signaling in 1° MK (fura-2); format: cell-based; conditions: fura-2 ratiometric imaging
Description: as §1

[4] = Nocifensive behavior in response to ET1 footpad injection (von Frey); format: in vivo, mouse; conditions: footpad injection of ET1; WT and oil-treated iKO (control) mice
Description: ET1 injections: After determining base-line withdrawal thresholds, each animal received an intraplantar injection of 10 μL 100 nM ET-1 plus contralateral vehicle. Thresholds were again evaluated 1 hour after injection.
Hindpaw mechanical withdrawal thresholds were determined by the automated von Frey hair method, using a 0.5 mm diameter stainless steel filament, part of an automated plantar touch stimulator (Ugo Basile, Modena, Italy). Relevant detail included pre-test acclimatization in a quiet room for 30 min, conducting the test at the same time of day and blinded observers. The stimulus was delivered to the hindpaw, automatically discontinued upon withdrawal, and its intensity recorded automatically. 6-8 trials per animal were conducted, with equal exposure of both hindpaws, leading to an average withdrawal threshold. Results are reported as […], which was calculated by subtracting post-treatment from pre-treatment measurements, expressed as % or relative to 1.0.

T1 sequence (Q9EPK8 whole entry): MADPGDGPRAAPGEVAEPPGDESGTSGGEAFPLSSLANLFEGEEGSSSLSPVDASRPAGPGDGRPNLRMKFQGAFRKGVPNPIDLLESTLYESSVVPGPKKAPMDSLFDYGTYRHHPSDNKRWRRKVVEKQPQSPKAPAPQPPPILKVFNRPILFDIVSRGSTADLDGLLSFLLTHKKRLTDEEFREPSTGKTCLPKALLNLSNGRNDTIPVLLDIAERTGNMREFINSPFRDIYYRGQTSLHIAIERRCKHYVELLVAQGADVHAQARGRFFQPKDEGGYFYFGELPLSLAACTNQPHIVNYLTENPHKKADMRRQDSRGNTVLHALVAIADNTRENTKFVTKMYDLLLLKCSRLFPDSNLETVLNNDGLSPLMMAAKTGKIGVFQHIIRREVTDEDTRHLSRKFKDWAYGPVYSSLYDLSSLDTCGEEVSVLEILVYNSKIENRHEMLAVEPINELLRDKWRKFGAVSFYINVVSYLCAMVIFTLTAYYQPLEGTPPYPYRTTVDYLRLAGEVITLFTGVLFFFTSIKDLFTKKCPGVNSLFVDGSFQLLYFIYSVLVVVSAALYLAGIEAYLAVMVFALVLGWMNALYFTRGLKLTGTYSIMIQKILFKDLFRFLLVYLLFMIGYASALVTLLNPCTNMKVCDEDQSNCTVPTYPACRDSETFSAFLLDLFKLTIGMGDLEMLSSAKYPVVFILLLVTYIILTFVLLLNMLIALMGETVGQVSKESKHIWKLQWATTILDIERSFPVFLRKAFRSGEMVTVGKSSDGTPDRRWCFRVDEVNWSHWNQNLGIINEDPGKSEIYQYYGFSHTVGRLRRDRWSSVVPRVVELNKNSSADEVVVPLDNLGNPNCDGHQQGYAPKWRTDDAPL

## ET1: endothelin-1, cognate peptide ligand of endothelin receptors
TRPV4 [1]
  GSK101-evoked Ca++ transient: augmented; also recorded: increase in signal
[2]
  UVB-evoked Ca++ signaling (ΔF/F0): significant increase; also recorded: augmentation
TRPV4 [3]
  4α-PDD-evoked Ca++ transients on co-application: significant increase in the response
[4]
  mechanical allodynia / von Frey withdrawal thresholds after ET1 injection: significantly lowered; also recorded: significant levels of mechanical allodynia

Source: US11014896B2, “TRPA1 and TRPV4 inhibitors and methods of using the same for organ-specific inflammation and itch” (Duke University, priority 2014, dated 2021)
